# Data as given in the Human Domainome abundance scans (Beltran et al. 2025).
# ± gives the uncertainty stated by the source.
# Experiment: abundance fitness (aPCA) (normalised: wild type 0, dead -1); higher = more abundant; growth selection in yeast, the domain comes from the species named
# Details: Homo sapiens
row,Substance,abundance fitness
1,"Transcriptional activator Myb R190I, P10242",-0.265 ± 0.14
2,"Transcriptional activator Myb R190K, P10242",0.137 ± 0.12
3,"Transcriptional activator Myb R190L, P10242",-0.131 ± 0.061
4,"Transcriptional activator Myb R190M, P10242",0.06 ± 0.14
5,"Transcriptional activator Myb R190N, P10242",-0.196 ± 0.19
6,"Transcriptional activator Myb R190P, P10242",-0.335 ± 0.083
7,"Transcriptional activator Myb R190Q, P10242",0.026 ± 0.12
8,"Transcriptional activator Myb R190S, P10242",-0.074 ± 0.065
9,"Transcriptional activator Myb R190T, P10242",-0.131 ± 0.08
10,"Transcriptional activator Myb R190V, P10242",-0.01 ± 0.089
11,"Transcriptional activator Myb R190W, P10242",-0.075 ± 0.11
12,"Transcriptional activator Myb R190Y, P10242",-0.461 ± 0.18
13,"Transcriptional activator Myb R191A, P10242",0.036 ± 0.075
14,"Transcriptional activator Myb R191C, P10242",0.172 ± 0.15
15,"Transcriptional activator Myb R191D, P10242",0.117 ± 0.12
16,"Transcriptional activator Myb R191E, P10242",0.004 ± 0.086
17,"Transcriptional activator Myb R191F, P10242",-0.164 ± 0.21
18,"Transcriptional activator Myb R191G, P10242",-0.038 ± 0.068
19,"Transcriptional activator Myb R191I, P10242",-0.136 ± 0.16
20,"Transcriptional activator Myb R191K, P10242",-0.192 ± 0.12
21,"Transcriptional activator Myb R191L, P10242",-0.058 ± 0.077
22,"Transcriptional activator Myb R191M, P10242",-0.091 ± 0.13

row,Substance,abundance fitness
1,"Transcriptional activator Myb R191N, P10242",-0.07 ± 0.13
2,"Transcriptional activator Myb R191P, P10242",0.047 ± 0.11
3,"Transcriptional activator Myb R191S, P10242",-0.052 ± 0.076
4,"Transcriptional activator Myb R191T, P10242",0.022 ± 0.14
5,"Transcriptional activator Myb R191V, P10242",0.017 ± 0.094
6,"Transcriptional activator Myb R191W, P10242",-0.017 ± 0.088
7,"Transcriptional activator Myb R191Y, P10242",-0.423 ± 0.16
8,"Transcriptional activator Myb S146A, P10242",-0.233 ± 0.15
9,"Transcriptional activator Myb S146F, P10242",-0.021 ± 0.19
10,"Transcriptional activator Myb S146G, P10242",-0.159 ± 0.2
11,"Transcriptional activator Myb S146K, P10242",-0.344 ± 0.34
12,"Transcriptional activator Myb S146L, P10242",-0.299 ± 0.43
13,"Transcriptional activator Myb S146P, P10242",-0.108 ± 0.26
14,"Transcriptional activator Myb S146V, P10242",-0.017 ± 0.29
15,"Transcriptional activator Myb S187A, P10242",-0.075 ± 0.093
16,"Transcriptional activator Myb S187C, P10242",-0.061 ± 0.1
17,"Transcriptional activator Myb S187D, P10242",0.077 ± 0.12
18,"Transcriptional activator Myb S187E, P10242",-0.001 ± 0.067
19,"Transcriptional activator Myb S187F, P10242",-0.26 ± 0.085
20,"Transcriptional activator Myb S187G, P10242",-0.023 ± 0.049
21,"Transcriptional activator Myb S187H, P10242",-0.011 ± 0.17
22,"Transcriptional activator Myb S187I, P10242",-0.033 ± 0.14

row,Substance,abundance fitness
1,"Transcriptional activator Myb S187K, P10242",-0.058 ± 0.1
2,"Transcriptional activator Myb S187L, P10242",-0.019 ± 0.066
3,"Transcriptional activator Myb S187M, P10242",-0.188 ± 0.13
4,"Transcriptional activator Myb S187N, P10242",-0.161 ± 0.14
5,"Transcriptional activator Myb S187P, P10242",-0.589 ± 0.11
6,"Transcriptional activator Myb S187Q, P10242",0.125 ± 0.11
7,"Transcriptional activator Myb S187R, P10242",-0.054 ± 0.049
8,"Transcriptional activator Myb S187T, P10242",0.124 ± 0.1
9,"Transcriptional activator Myb S187V, P10242",-0.081 ± 0.061
10,"Transcriptional activator Myb S187W, P10242",-0.108 ± 0.07
11,"Transcriptional activator Myb S202C, P10242",-0.108 ± 0.1
12,"Transcriptional activator Myb S202D, P10242",-0.069 ± 0.087
13,"Transcriptional activator Myb S202E, P10242",0.042 ± 0.073
14,"Transcriptional activator Myb S202F, P10242",-0.045 ± 0.093
15,"Transcriptional activator Myb S202G, P10242",0.027 ± 0.047
16,"Transcriptional activator Myb S202I, P10242",-0.021 ± 0.19
17,"Transcriptional activator Myb S202L, P10242",-0.181 ± 0.073
18,"Transcriptional activator Myb S202M, P10242",-0.186 ± 0.12
19,"Transcriptional activator Myb S202N, P10242",-0.237 ± 0.18
20,"Transcriptional activator Myb S202P, P10242",-0.061 ± 0.14
21,"Transcriptional activator Myb S202Q, P10242",-0.102 ± 0.16
22,"Transcriptional activator Myb S202R, P10242",-0.144 ± 0.063

row,Substance,abundance fitness
1,"Transcriptional activator Myb S202T, P10242",0.012 ± 0.11
2,"Transcriptional activator Myb S202V, P10242",-0.001 ± 0.064
3,"Transcriptional activator Myb S202W, P10242",-0.211 ± 0.083
4,"Transcriptional activator Myb S202Y, P10242",-0.218 ± 0.17
5,"Transcriptional activator Myb S203A, P10242",-0.01 ± 0.085
6,"Transcriptional activator Myb S203C, P10242",-0.112 ± 0.094
7,"Transcriptional activator Myb S203D, P10242",-0.079 ± 0.15
8,"Transcriptional activator Myb S203E, P10242",0.079 ± 0.16
9,"Transcriptional activator Myb S203F, P10242",-0.29 ± 0.1
10,"Transcriptional activator Myb S203G, P10242",0.072 ± 0.066
11,"Transcriptional activator Myb S203H, P10242",-0.264 ± 0.12
12,"Transcriptional activator Myb S203K, P10242",0.14 ± 0.19
13,"Transcriptional activator Myb S203L, P10242",-0.042 ± 0.094
14,"Transcriptional activator Myb S203M, P10242",-0.054 ± 0.15
15,"Transcriptional activator Myb S203N, P10242",-0.108 ± 0.1
16,"Transcriptional activator Myb S203P, P10242",-0.139 ± 0.12
17,"Transcriptional activator Myb S203Q, P10242",0.061 ± 0.13
18,"Transcriptional activator Myb S203R, P10242",-0.145 ± 0.074
19,"Transcriptional activator Myb S203T, P10242",0.006 ± 0.1
20,"Transcriptional activator Myb S203V, P10242",0.055 ± 0.082
21,"Transcriptional activator Myb S203W, P10242",-0.015 ± 0.097
22,"Transcriptional activator Myb S203Y, P10242",-0.113 ± 0.15

row,Substance,abundance fitness
1,"Transcriptional activator Myb T145A, P10242",-0.066 ± 0.061
2,"Transcriptional activator Myb T145C, P10242",-0.218 ± 0.16
3,"Transcriptional activator Myb T145D, P10242",0.144 ± 0.15
4,"Transcriptional activator Myb T145E, P10242",0.055 ± 0.12
5,"Transcriptional activator Myb T145F, P10242",-0.123 ± 0.25
6,"Transcriptional activator Myb T145G, P10242",-0.091 ± 0.061
7,"Transcriptional activator Myb T145I, P10242",0.228 ± 0.14
8,"Transcriptional activator Myb T145L, P10242",-0.122 ± 0.13
9,"Transcriptional activator Myb T145M, P10242",0.117 ± 0.12
10,"Transcriptional activator Myb T145N, P10242",-0.179 ± 0.26
11,"Transcriptional activator Myb T145P, P10242",-0.212 ± 0.12
12,"Transcriptional activator Myb T145Q, P10242",-0.171 ± 0.15
13,"Transcriptional activator Myb T145R, P10242",-0.232 ± 0.071
14,"Transcriptional activator Myb T145S, P10242",-0.042 ± 0.077
15,"Transcriptional activator Myb T145V, P10242",-0.007 ± 0.068
16,"Transcriptional activator Myb T145W, P10242",-0.318 ± 0.1
17,"Transcriptional activator Myb T145Y, P10242",-0.114 ± 0.23
18,"Transcriptional activator Myb T148A, P10242",-0.286 ± 0.039
19,"Transcriptional activator Myb T148D, P10242",-0.348 ± 0.043
20,"Transcriptional activator Myb T148E, P10242",-0.443 ± 0.065
